Experimental data taken from PMC10864110.

B1: WDR74 dsDNA (dsDNA)
DNA 1: CGTTCCTGGAAGTACTGCAATACCAGGTCGATGCGTGGAGTGGACGGAGCAAGCTCCTATTCCATCTCCTATTTCCAAAAATCCA
DNA 2: TGGATTTTTGGAAATAGGAGATGGAATAGGAGCTTGCTCCGTCCACTCCACGCATCGACCTGGTATTGCAGTACTTCCAGGAACG
B2: CCND1 dsDNA (dsDNA)
DNA 1: CAGTAGCAGCGAGCAGCAGAGTCCGCACGCTCCGGCGAGGGGCAGAAGAGCGCGAGGGAGCGCGGGGCAGCAGAAGCGAGAGCCG
DNA 2: CGGCTCTCGCTTCTGCTGCCCCGCGCTCCCTCGCGCTCTTCTGCCCCTCGCCGGAGCGTGCGGACTCTGCTGCTCGCTGCTACTG
B3: LINC00869 dsDNA (dsDNA)
DNA 1: TGTAAAGGGTGAGGCATATGAGGCTGCGGCGGGGCGGAGGGGCGTGAGCTTATACTTATGTTTATCTGGCAGAAGAAATGTTATG
DNA 2: CATAACATTTCTTCTGCCAGATAAACATAAGTATAAGCTCACGCCCCTCCGCCCCGCCGCAGCCTCATATGCCTCACCCTTTACA

target: GST-PC4 WT (Homo sapiens, UniProt P53999 2-127); assay: EMSA

Binding result, no binding:
B1, B2, B3
